Experimental data taken from article PMC5368077, “Structural and functional insights into thermally stable cytochrome c′ from a thermophile” (Protein Science : A Publication of the Protein Society, 2017).
Blank lines part the entries; values can stand above or below the compound they belong to.

Assays:
[1] = molecular target: T1, PHCP (Hydrogenophilus thermoluteolus cytochrome c') (Hydrogenophilus thermoluteolus, UniProt F7J213); experiment: visible absorption spectroscopy; format: binding; conditions: reduced (dithionite) protein 6 uM; 0.5% (v/v) ligand; 10 mM potassium phosphate pH 7.0; 25 C; isomer of butyl group not stated
T1 construct: gene cytc; mature protein, N-terminal DALKP; authentic protein from H. thermoluteolus cells for crystal
T1 sequence (F7J213 20-154): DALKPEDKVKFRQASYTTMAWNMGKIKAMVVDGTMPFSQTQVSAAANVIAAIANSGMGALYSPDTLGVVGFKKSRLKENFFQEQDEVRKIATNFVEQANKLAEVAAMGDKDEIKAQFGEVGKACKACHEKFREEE

[2] = molecular target: PHCP A20G variant (Hydrogenophilus thermoluteolus); experiment: AUC; sedimentation velocity of the single variants, data not shown; the same analysis as for the wild-type
[3] = molecular target: PHCP F11T variant (Hydrogenophilus thermoluteolus); experiment: as above
[4] = molecular target: PHCP F11T/T18F/F71D triple variant (Hydrogenophilus thermoluteolus); experiment: AUC; sedimentation velocity, 5 μM protein, 10 mM Tris-HCl (pH 7.5) with 100 mM NaCl, 20°C, 42,000 rpm, c(s) model in SEDFIT; n = 1
[5] = molecular target: PHCP F71D variant (Hydrogenophilus thermoluteolus); experiment: AUC; sedimentation velocity of the single variants, data not shown; the same analysis as for the wild-type
[6] = molecular target: PHCP L76V variant (Hydrogenophilus thermoluteolus); experiment: as above
[7] = molecular target: PHCP T17E variant (Hydrogenophilus thermoluteolus); experiment: as above
[8] = molecular target: PHCP T17E/A20G/L76V triple variant (Hydrogenophilus thermoluteolus); experiment: AUC; sedimentation velocity, 5 μM protein, 10 mM Tris-HCl (pH 7.5) with 100 mM NaCl, 20°C, 42,000 rpm, c(s) model in SEDFIT; n = 1
[9] = molecular target: PHCP T18F variant (Hydrogenophilus thermoluteolus); experiment: AUC; sedimentation velocity of the single variants, data not shown; the same analysis as for the wild-type
[10] = molecular target: recombinant PHCP wild-type (Hydrogenophilus thermoluteolus); experiment: AUC; sedimentation velocity, 5 μM protein, 10 mM Tris-HCl (pH 7.5) with 100 mM NaCl, 20°C, 42,000 rpm, c(s) model in SEDFIT; n = 1

Compound: [C-]#[N+]CCCC [butyl-isocyanide]
visible absorption spectroscopy [1]: PHCP is able to bind CO, NO, and large ligands such as butyl‐isocyanide and imidazole

Compound: PHCP A20G variant (natural protein)
stoichiometry N [2]: 2

Compound: PHCP L76V variant (natural protein)
stoichiometry N [6]: 2

Compound: PHCP T17E variant (natural protein)
stoichiometry N [7]: 2

Compound: PHCP T17E/A20G/L76V triple variant (natural protein)
population of the dimer species [8]: 91.1%
stoichiometry N [8]: 2

Compound: PHCP T18F variant (natural protein)
stoichiometry N [9]: 2

Now from value to compound:

stoichiometry N [3]: 2
Compound: PHCP F11T variant (natural protein)

population of the dimer species [4]: 97.7%
stoichiometry N [4]: 2
Compound: PHCP F11T/T18F/F71D triple variant (natural protein)

stoichiometry N [5]: 2
Compound: PHCP F71D variant (natural protein)

population of the dimer species [10]: 99.9%
stoichiometry N [10]: 2
Compound: recombinant PHCP wild-type (natural protein)
